The results in this text go back to the supplement of paper PMC10724198.

± gives the standard deviation of the averaged measurements.

In this series the test system is Saccharomyces cerevisiae. The series can be described thus: protein stability index of tFT-peptide fusion (C-terminal peptide) (PSI (0-1 scale)); higher = more stable (slower turnover). Particulars: temperature: 30 C. As for the experimental part: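 MPS profiling in S. cerevisiae of the yeast C-terminome library: the last 12 aa of each annotated ORF are fused to the C-terminus of a sfGFP-mCherry timer, after a GGGS linker. Cells are FACS-sorted into 8 mCherry/sfGFP bins and deep-sequenced. PSI runs from 0 (unstable) to 1 (stable); wild type and das1Δ backgrounds, two technical replicates each.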

[1] abbreviates: genetic background: das1 deletion.

For NSKVMNIKALDH [MRPL10 C-terminal 12 aa], the protein stability index reads like this: under setting [1], 0.6653 ± 0.0031; (genetic background: wild type) 0.6725 ± 0.0055.
In the case of “NSLTSLSIYAFL [YEL018C-A C-terminal 12 aa]”, the protein stability index by setting is: under setting [1], 0.7094 ± 0.0019; (genetic background: wild type) 0.685 ± 0.022.
In the case of NSNKKKGFKSRR [DRS1 C-terminal 12 aa], the protein stability index runs as follows: under setting [1], 0.682 ± 0.017; (genetic background: wild type) 0.732 ± 0.0088.
The like results for NTANRIIEELLK [UBC1 C-terminal 12 aa] were, in that order, 0.68955 ± 0.00029 and 0.67 ± 0.032.
As for NTMGKSGRHNIT [YOR282W C-terminal 12 aa], the protein stability index under setting [1] worked out at 0.6851 ± 0.0044 and the protein stability index (genetic background: wild type) amounted to 0.685 ± 0.032.
Turning to NVGKQLSNEIIY [PRP28 C-terminal 12 aa], the protein stability index amounted to 0.695 ± 0.045 under setting [1] and 0.686 ± 0.042 (genetic background: wild type).
The like results for NVLGEPFDRYLD [UTP10 C-terminal 12 aa] were, in that order, 0.724 ± 0.017 and 0.716 ± 0.013.
In turn, NVPVSNGTTAAQ [UTP23 C-terminal 12 aa] registered a protein stability index under setting [1] of 0.695 ± 0.013 and a protein stability index (genetic background: wild type) of 0.691 ± 0.025.
The like results for NYFIITCIGIIM [YPL261C C-terminal 12 aa] were, in that order, 0.228 ± 0.029 and 0.247 ± 0.0067.
As for NYGQYSSFWSLL [YOR055W C-terminal 12 aa], the protein stability index runs as follows: under setting [1], 0.765 ± 0.019; (genetic background: wild type) 0.754 ± 0.017.
The like results for PADIATDHDITM [TAF8 C-terminal 12 aa] were, in that order, 0.717 ± 0.013 and 0.685 ± 0.0044.
With PAKVGIVKGEEN [MGE1 C-terminal 12 aa], the protein stability index is, setting by setting: under setting [1], 0.693 ± 0.021; (genetic background: wild type) 0.709 ± 0.015.
The like results for PCRYLELRKFGR [TPN1 C-terminal 12 aa] were, in that order, 0.7005 ± 0.0046 and 0.74 ± 0.045.
The matching figures for PFGNGFKMNFGL [JEM1 C-terminal 12 aa]: 0.736 ± 0.038 and 0.677 ± 0.058.
The like results for PFKAIFDAVTKE [ARO1 C-terminal 12 aa] were, in that order, 0.73 ± 0.014 and 0.717 ± 0.021.
Turning to PFYRTSAESIDF [SLM5 C-terminal 12 aa], the protein stability index worked out at 0.719 ± 0.022 under setting [1] and 0.706 ± 0.034 (genetic background: wild type).
The like results for PGCVIENGTKLY [ADE57 C-terminal 12 aa] were, in that order, 0.687 ± 0.012 and 0.71 ± 0.011.
The matching figures for “PIKIIYNNKCPS [YLL006W-A C-terminal 12 aa]”: 0.709 ± 0.02 and 0.688 ± 0.0074.
The like results for PKGGNYVSRYQR [THO2 C-terminal 12 aa] were, in that order, 0.695 ± 0.012 and 0.6623 ± 0.0015.
The sequence PKINPLHARKPT [RAD52 C-terminal 12 aa] displayed a protein stability index under setting [1] of 0.7086 ± 0.0022 and a protein stability index (genetic background: wild type) of 0.7036 ± 0.0028.
In the case of PKSNMYYSWTQL [ORC4 C-terminal 12 aa], the protein stability index is, setting by setting: under setting [1], 0.7112 ± 0.0057; (genetic background: wild type) 0.68625 ± 0.00028.
With PLALFYSHLILL [YGR151C C-terminal 12 aa], the protein stability index by setting is: under setting [1], 0.6 ± 0.019; (genetic background: wild type) 0.27 ± 0.016.
For PLGVQFLDTFRR [DSC2 C-terminal 12 aa], the protein stability index was found to be 0.718 ± 0.013 under setting [1] and 0.736 ± 0.051 (genetic background: wild type).
The matching figures for “PLHFQLIWLPIF [YML099W-A C-terminal 12 aa]”: 0.5232 ± 0.00075 and 0.505 ± 0.012.
The matching figures for “PLKFPLPLKPPL [YHL034W-A C-terminal 12 aa]”: 0.715 ± 0.018 and 0.699 ± 0.022.
With PLMFHCTRWEVD [GEP5 C-terminal 12 aa], the protein stability index under setting [1] was determined as 0.6911 ± 0.0033 and the protein stability index (genetic background: wild type) was 0.741 ± 0.064.
The like results for PLPDLDEDDGEE [DOM34 C-terminal 12 aa] were, in that order, 0.686 ± 0.0069 and 0.704 ± 0.041.
The like results for PLSASWCTSLVT [YHR173C C-terminal 12 aa] were, in that order, 0.696 ± 0.0087 and 0.671 ± 0.0088.
With PNFGFLILNSEP [YAL064W C-terminal 12 aa], the protein stability index is 0.73226 ± 0.00022 under setting [1] and 0.68 ± 0.014 (genetic background: wild type).
The matching figures for PNILLAFSYTAW [YNL170W C-terminal 12 aa]: 0.532 ± 0.017 and 0.5663 ± 0.0014.
The like results for PPPPSRKCGTPK [LDB17 C-terminal 12 aa] were, in that order, 0.713 ± 0.038 and 0.7238 ± 0.0025.
The like results for PSMTTTNFSAFM [ECM22 C-terminal 12 aa] were, in that order, 0.698 ± 0.008 and 0.697 ± 0.058.
As for PSPTALANLARK [SGF29 C-terminal 12 aa], the protein stability index is, setting by setting: under setting [1], 0.677 ± 0.039; (genetic background: wild type) 0.693 ± 0.041.
As for PSSKAPSPGVNT [TEM1 C-terminal 12 aa], the protein stability index runs as follows: under setting [1], 0.677 ± 0.017; (genetic background: wild type) 0.64 ± 0.026.
The matching figures for PTPPGLQGPPGL [MSL5 C-terminal 12 aa]: 0.692 ± 0.018 and 0.693 ± 0.0097.
Consider PVSESSSPNSWP [YDR230W C-terminal 12 aa], for which the protein stability index was 0.768 ± 0.012 under setting [1] and 0.706 ± 0.02 (genetic background: wild type).
For QAADKRIDRNNP [SRD1 C-terminal 12 aa], the protein stability index was 0.7185 ± 0.0037 under setting [1] and 0.702 ± 0.022 (genetic background: wild type).
The like results for QDELDAMKEMGF [CSM3 C-terminal 12 aa] were, in that order, 0.698 ± 0.023 and 0.699 ± 0.049.
For QDRSCSWLKLLL [YLR171W C-terminal 12 aa], the protein stability index under setting [1] turned out to be 0.685 ± 0.021 and the protein stability index (genetic background: wild type) was 0.704 ± 0.021.
The matching figures for QEISYKFSKTYS [IME1 C-terminal 12 aa]: 0.676 ± 0.021 and 0.664 ± 0.038.
The matching figures for QELISLIDVINQ [RNH203 C-terminal 12 aa]: 0.7225 ± 0.005 and 0.739 ± 0.035.
On to QFKQILENYRPT [VPS38 C-terminal 12 aa], for which the protein stability index under setting [1] amounted to 0.664 ± 0.0088 and the protein stability index (genetic background: wild type) stood at 0.7348 ± 0.0013.
QIVGLLKLLASI [PEX15 C-terminal 12 aa]: the protein stability index under setting [1] came out at 0.68 ± 0.036 and the protein stability index (genetic background: wild type) turned out to be 0.405 ± 0.038.
For QIVGRYVVDTSK [ADH1 C-terminal 12 aa], the protein stability index by setting is: under setting [1], 0.6827 ± 0.0057; (genetic background: wild type) 0.683 ± 0.015.
For QKIDNALKMTGR [YDR102C C-terminal 12 aa], the protein stability index stood at 0.6896 ± 0.0062 under setting [1] and 0.705 ± 0.0095 (genetic background: wild type).
In the case of QKLHAIDGEDEL [GPI17 C-terminal 12 aa], the protein stability index reads like this: under setting [1], 0.688 ± 0.017; (genetic background: wild type) 0.649 ± 0.028.
The matching figures for QLQDLLSSENNK [AIM11 C-terminal 12 aa]: 0.7169 ± 0.0021 and 0.688 ± 0.032.
The like results for QNYPIVSFSRVI [OSW1 C-terminal 12 aa] were, in that order, 0.7236 ± 0.0058 and 0.685 ± 0.012.
The matching figures for QPINLDSISDDL [DRE2 C-terminal 12 aa]: 0.7068 ± 0.0039 and 0.766 ± 0.12.
For QQYFQEPQQGQY [MCM1 C-terminal 12 aa], the protein stability index by setting is: under setting [1], 0.676 ± 0.0068; (genetic background: wild type) 0.703 ± 0.077.
The matching figures for QSATKNQQNQGK [SSQ1 C-terminal 12 aa]: 0.679 ± 0.011 and 0.656 ± 0.01.
Regarding QSKNIEIFSQIK [YGR067C C-terminal 12 aa], the protein stability index was 0.71 ± 0.031 under setting [1] and 0.695 ± 0.018 (genetic background: wild type).
The matching figures for QSQYSSRFVELD [MCO12 C-terminal 12 aa]: 0.691 ± 0.015 and 0.6892 ± 0.0068.
The matching figures for QVKLSILKSLGF [UBC7 C-terminal 12 aa]: 0.702 ± 0.02 and 0.657 ± 0.0096.
The matching figures for QVTAVVVSYQGV [ATG11 C-terminal 12 aa]: 0.5882 ± 0.0024 and 0.5999 ± 0.0039.
Regarding RAGSHSVGLLPM [UIP5 C-terminal 12 aa], the protein stability index reads like this: under setting [1], 0.6976 ± 0.0019; (genetic background: wild type) 0.6835 ± 0.0029.
The matching figures for RAQPGRKRKHKK [RSC58 C-terminal 12 aa]: 0.743 ± 0.019 and 0.696 ± 0.0068.
The like results for RDGQKTSLIRLI [YBR259W C-terminal 12 aa] were, in that order, 0.711 ± 0.035 and 0.57 ± 0.11.
On to REETEKLNINKD [YAR1 C-terminal 12 aa], for which the protein stability index amounted to 0.71 ± 0.014 under setting [1] and 0.66 ± 0.067 (genetic background: wild type).
REVREIHEMYCK [YKR012C C-terminal 12 aa] gave a protein stability index under setting [1] of 0.696 ± 0.034 and a protein stability index (genetic background: wild type) of 0.6885 ± 0.0035.
Turning to RGDDGESYAYLA [CDC53 C-terminal 12 aa], the protein stability index by setting is: under setting [1], 0.69274 ± 0.00042; (genetic background: wild type) 0.691 ± 0.0089.
The like results for RGFSFMPDDLDL [PKC1 C-terminal 12 aa] were, in that order, 0.722 ± 0.013 and 0.72 ± 0.028.
Turning to RHQGQNIYRSGV [MCM5 C-terminal 12 aa], the protein stability index under setting [1] came out at 0.682 ± 0.03 and the protein stability index (genetic background: wild type) is 0.674 ± 0.022.
In the case of RHSMSEEELEMY [KTR4 C-terminal 12 aa], the protein stability index is, setting by setting: under setting [1], 0.689 ± 0.034; (genetic background: wild type) 0.685 ± 0.044.
The matching figures for RKFSSSTNLAKF [TOS8 C-terminal 12 aa]: 0.779 ± 0.039 and 0.81 ± 0.012.
As to RKGWTGFKKVFK [GYP5 C-terminal 12 aa], the protein stability index reads like this: under setting [1], 0.695 ± 0.025; (genetic background: wild type) 0.699 ± 0.061.
Consider RLAKKVARRNAD [RPS24A C-terminal 12 aa], for which the protein stability index is, setting by setting: under setting [1], 0.693 ± 0.0097; (genetic background: wild type) 0.683 ± 0.024.
